Test results taken from US20200277382A1 (TUFTS MEDICAL CENTER, published 2020).

Target: T1, integrin α5 (obligate heterodimer α5β1) (human, UniProt P08648 42-1049; P05556 21-798)
T1 construct: whole, on cells; on the cells α5 stands as α5β1; also called alpha 5; ITGA5
Experiment: flow cytometry on a panel of cell lines with variable integrin α5 and alpha-V expression
Method: Flow Cytometry: Cells with variable membrane integrin α5 and alpha-V expression were incubated with monoclonal α5 or alpha-V antibodies (Millipore MAB1956Z and MABT207), the bispecific antibody construct ITGA5B1xAV, or isotype control, for 1 hour at room temperature followed by 1 hour of incubation with a secondary-conjugated antibody, before being analyzed by flow cytometry.
Statistics: The mean fluorescent intensities (MFI) for the α5, alpha-V, and bispecific ITGA5B1xAV stained cell populations for each cell line were calculated from the flow cytometry data. Then a correlation coefficient between the sum of α5 and alpha-V MFIs and the bispecific ITGA5B1xAV was calculated.
The sum of integrin α5 and integrin alpha-V binding (MFI) was highly correlated with bispecific binding (correlation.9187; FIG. 3B).

- binding result: binds
B1: ITGA5B1xAV bispecific, tetravalent antibody construct (bispecific antibody, human IgG2, kappa)
heavy: QVQLQQSGGELAKPGASVKVSCKASGYTFSSFWMHWVRQAPGQGLEWIGYINPRSGYTEYNEIFRDKATMTTDTSTSTAYMELSSLRSEDTAVYYCASFLGRGAMDYWGQGTTVTVSSASTKGPSVFPLAPCSRSTSESTAALGCLVKDYFPEPVTVSWNSGALTSGVHTFPAVLQSSGLYSLSSVVTVPSSNFGTQTYTCNVDHKPSNTKVDKTVERKCCVECPPCPAPPVAGPSVFLFPPKPKDTLMISRTPEVTCVVVDVSHEDPEVQFNWYVDGVEVHNAKTKPREEQFNSTFRVVSVLTVVHQDWLNGKEYKCKVSNKGLPAPIEKTISKTKGQPREPQVYTLPPSREEMTKNQVSLTCLVKGFYPSDIAVEWESNGQPENNYKTTPPMLDSDGSFFLYSKLTVDKSRWQQGNVFSCSVMHEALHNHYTQKSLSLSPGKGGGGSGGGGSQVQLKESGPGLVAPSQSLSITCTISGFSLTDYGVHWVRQPPGKGLEWLVVIWSDGSSTYNSALKSRMTIRKDNSKSQVFLIMNSLQTDDSAMYYCARHGTYYGMTTTGDALDYWGQGTSVTVSSGGGGSGGGGSGGGGSQIVLTQSPAIMSASLGERVTMTCTASSSVSSNYLHWYQQKPGSAPNLWIYSTSNLASGVPARFSGSGSGTSYSLTISSMEAEDAATYYCHQYLRSPPTFGGGTKLEIK
light: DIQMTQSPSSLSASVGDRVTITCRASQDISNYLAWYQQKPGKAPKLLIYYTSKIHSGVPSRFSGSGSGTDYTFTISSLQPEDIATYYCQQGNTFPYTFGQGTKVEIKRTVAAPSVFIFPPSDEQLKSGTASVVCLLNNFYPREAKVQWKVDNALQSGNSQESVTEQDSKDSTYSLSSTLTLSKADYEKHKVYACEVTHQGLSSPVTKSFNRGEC
notes: also called ITGa5β1xaV; bispecific ITGA5V
